Laboratory results reported in the supplement of paper PMC10065799, “High-throughput profiling of sequence recognition by tyrosine kinases and SH2 domains using bacterial peptide display” (eLife, 2023).
Values belong to the sequence of their own block, whether it stands above or below them.

Experiments:
AncSZ = test: phosphorylation enrichment, bacterial display (enrichment ratio); higher = better substrate or ligand; peptides without Tyr show the background
EPHB1 = EPHB1 (UniProt P54762); test: as above
EPHB2 = EPHB2 (UniProt P29323); test: as above
FGFR1 = FGFR1 (UniProt P11362); test: as above
FGFR3 = FGFR3 (UniProt P22607); test: as above
Fer (mouse) = test: as above
Fes = Fes (UniProt P07332); test: as above
Fyn = Fyn (UniProt P06241); test: as above
Hck = Hck (UniProt P08631); test: as above
Jak2 = Jak2 (UniProt O60674); test: as above
MERTK = MERTK (UniProt Q12866); test: as above
c-Abl (mouse) = test: as above
c-Src = test: as above
Grb2 SH2 = Grb2 SH2 (UniProt P62993); test: SH2 binding enrichment of the phosphorylated peptide, bacterial display (enrichment ratio); higher = better substrate or ligand; peptides without Tyr show the background
SHP2-C SH2 = test: as above
c-Src SH2 = test: as above
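Wherever SH2 binding enrichment of the phosphorylated peptide, bacterial display is given: peptide library displayed on the E. coli surface as eCPX fusions, selected cells deep-sequenced, score is each peptide's frequency after selection divided by its frequency in the input.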
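Wherever phosphorylation enrichment, bacterial display is given: 11-residue human phosphosite peptides and single-mutation variants displayed on the E. coli surface, counted by deep sequencing, each peptide's frequency after selection divided by its frequency in the unselected input library; frequency after pTyr selection over input frequency; kinase dosed for 20-30% of maximal phosphorylation in three min.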

Sequence of Jak2 (O60674 whole entry, looked up): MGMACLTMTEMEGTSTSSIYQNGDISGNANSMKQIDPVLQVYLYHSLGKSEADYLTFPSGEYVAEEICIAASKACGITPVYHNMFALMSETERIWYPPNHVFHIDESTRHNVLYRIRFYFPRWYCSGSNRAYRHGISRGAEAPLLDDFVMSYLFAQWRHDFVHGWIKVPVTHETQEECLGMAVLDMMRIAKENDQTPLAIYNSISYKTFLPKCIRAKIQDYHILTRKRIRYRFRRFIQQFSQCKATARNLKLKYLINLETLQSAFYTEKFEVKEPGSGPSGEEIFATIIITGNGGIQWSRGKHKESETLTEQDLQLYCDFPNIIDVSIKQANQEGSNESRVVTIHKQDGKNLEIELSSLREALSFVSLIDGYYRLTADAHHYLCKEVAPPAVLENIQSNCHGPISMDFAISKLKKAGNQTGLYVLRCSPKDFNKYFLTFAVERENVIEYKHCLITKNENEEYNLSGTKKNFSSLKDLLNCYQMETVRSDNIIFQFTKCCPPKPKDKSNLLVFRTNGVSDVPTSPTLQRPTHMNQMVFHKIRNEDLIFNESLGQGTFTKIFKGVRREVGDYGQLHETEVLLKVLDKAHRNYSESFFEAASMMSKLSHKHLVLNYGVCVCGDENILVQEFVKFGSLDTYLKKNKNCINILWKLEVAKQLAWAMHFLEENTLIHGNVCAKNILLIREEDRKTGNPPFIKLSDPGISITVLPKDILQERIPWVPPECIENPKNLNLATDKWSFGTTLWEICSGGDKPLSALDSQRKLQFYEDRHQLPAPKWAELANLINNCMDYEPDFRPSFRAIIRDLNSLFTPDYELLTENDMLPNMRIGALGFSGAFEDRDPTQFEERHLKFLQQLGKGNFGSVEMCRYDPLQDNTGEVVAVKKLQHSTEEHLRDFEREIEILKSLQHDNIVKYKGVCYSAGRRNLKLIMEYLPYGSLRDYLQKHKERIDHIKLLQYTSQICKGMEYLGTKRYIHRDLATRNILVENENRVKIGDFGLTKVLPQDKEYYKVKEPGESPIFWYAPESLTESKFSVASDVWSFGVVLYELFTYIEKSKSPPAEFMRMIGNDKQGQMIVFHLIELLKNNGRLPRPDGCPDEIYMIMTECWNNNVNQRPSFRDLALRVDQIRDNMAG
Sequence of FGFR1 (P11362 whole entry, looked up): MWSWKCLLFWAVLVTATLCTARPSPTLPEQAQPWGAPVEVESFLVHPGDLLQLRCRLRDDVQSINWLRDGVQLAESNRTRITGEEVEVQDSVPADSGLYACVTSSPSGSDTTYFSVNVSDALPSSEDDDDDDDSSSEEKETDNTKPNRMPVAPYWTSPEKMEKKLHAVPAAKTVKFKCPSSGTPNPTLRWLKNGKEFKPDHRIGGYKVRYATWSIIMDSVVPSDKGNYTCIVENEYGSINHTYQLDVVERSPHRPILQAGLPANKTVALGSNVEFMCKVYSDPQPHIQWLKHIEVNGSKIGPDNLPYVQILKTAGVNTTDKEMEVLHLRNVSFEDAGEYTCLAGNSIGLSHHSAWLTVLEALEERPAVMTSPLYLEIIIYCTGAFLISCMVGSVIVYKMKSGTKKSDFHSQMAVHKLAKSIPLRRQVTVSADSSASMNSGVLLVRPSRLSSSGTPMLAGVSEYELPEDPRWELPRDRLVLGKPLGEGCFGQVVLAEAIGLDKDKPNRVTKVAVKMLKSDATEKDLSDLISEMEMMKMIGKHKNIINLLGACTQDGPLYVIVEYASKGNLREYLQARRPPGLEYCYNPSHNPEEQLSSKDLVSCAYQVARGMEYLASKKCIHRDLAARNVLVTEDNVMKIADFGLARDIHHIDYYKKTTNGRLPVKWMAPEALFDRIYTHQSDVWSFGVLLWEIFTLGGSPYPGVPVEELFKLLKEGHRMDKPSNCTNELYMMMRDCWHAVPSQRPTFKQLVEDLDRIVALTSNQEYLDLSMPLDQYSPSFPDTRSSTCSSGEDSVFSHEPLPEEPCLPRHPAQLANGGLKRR
Sequence of Fes (P07332 whole entry, looked up): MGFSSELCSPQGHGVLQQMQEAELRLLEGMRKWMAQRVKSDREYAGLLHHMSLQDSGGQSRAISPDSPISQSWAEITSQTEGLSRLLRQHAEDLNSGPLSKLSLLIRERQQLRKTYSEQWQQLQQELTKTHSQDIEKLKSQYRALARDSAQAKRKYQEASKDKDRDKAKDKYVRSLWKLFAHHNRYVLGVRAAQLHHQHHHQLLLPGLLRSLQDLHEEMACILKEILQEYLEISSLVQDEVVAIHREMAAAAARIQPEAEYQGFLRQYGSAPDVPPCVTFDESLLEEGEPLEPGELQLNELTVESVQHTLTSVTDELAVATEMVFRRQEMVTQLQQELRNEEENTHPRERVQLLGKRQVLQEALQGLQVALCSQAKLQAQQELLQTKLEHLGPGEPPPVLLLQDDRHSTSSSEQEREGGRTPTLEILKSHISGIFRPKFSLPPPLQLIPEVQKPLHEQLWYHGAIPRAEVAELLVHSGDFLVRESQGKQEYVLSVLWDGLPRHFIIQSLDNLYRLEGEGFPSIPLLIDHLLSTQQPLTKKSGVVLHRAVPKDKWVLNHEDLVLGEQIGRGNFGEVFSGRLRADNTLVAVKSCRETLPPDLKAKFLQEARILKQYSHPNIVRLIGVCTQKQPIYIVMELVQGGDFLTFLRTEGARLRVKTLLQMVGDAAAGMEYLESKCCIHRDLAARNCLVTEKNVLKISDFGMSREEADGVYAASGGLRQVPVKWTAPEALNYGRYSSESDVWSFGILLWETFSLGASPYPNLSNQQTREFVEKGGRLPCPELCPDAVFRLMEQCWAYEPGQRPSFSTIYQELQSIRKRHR
Sequence of FGFR3 (P22607 whole entry, looked up): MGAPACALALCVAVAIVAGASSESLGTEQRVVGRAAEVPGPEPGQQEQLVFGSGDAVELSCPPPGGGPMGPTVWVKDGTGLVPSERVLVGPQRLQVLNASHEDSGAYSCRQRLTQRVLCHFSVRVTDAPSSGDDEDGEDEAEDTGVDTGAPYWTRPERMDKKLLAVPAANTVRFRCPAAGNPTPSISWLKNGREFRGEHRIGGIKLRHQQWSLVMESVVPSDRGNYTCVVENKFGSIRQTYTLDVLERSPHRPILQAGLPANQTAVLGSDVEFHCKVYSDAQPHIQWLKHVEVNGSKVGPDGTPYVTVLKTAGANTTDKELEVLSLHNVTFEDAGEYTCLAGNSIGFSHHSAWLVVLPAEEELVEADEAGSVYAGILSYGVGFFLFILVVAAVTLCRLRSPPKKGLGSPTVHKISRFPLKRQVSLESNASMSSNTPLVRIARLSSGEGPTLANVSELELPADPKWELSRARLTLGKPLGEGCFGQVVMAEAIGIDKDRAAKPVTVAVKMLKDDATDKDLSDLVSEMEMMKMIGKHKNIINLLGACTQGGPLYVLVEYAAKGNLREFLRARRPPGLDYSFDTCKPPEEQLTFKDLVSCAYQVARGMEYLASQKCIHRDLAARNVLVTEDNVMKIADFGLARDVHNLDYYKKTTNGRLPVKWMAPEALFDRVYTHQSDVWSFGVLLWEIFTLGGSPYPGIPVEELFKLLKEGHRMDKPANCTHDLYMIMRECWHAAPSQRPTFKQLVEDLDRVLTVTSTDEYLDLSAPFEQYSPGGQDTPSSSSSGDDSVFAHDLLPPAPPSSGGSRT
Sequence of Fyn (P06241 whole entry, looked up): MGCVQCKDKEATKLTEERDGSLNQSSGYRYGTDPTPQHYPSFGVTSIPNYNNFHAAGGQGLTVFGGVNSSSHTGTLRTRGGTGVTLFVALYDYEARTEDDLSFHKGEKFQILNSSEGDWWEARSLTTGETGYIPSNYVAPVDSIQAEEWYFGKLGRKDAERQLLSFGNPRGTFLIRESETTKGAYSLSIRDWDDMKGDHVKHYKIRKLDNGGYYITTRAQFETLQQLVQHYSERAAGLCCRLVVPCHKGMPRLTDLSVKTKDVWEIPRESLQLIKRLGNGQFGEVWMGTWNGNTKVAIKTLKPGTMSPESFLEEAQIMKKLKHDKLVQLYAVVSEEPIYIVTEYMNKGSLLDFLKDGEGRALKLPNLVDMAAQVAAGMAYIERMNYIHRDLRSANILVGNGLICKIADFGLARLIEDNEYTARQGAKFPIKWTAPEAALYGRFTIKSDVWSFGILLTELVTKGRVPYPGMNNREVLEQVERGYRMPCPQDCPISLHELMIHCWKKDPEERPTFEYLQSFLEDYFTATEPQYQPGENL
Sequence of Hck (P08631 whole entry, looked up): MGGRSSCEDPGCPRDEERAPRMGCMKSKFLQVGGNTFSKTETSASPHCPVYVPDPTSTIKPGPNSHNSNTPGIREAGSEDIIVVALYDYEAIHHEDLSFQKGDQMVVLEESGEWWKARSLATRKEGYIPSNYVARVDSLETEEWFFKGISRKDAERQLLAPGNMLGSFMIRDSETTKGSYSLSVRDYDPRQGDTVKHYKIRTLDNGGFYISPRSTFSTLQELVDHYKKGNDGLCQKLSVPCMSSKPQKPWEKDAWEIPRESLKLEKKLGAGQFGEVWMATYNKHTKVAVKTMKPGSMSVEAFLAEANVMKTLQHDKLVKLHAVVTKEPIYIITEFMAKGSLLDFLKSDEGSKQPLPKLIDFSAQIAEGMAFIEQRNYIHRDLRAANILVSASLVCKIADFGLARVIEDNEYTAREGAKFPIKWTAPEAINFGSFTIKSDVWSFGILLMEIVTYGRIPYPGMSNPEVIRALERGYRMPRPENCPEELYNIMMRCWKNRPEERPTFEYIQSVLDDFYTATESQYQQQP

Sequence: IFGEEYEEQPR [ZMYM2_Y1033_V1028I]
- phosphorylation enrichment (AncSZ): 1.47
- phosphorylation enrichment (EPHB1): 0.663
- phosphorylation enrichment (EPHB2): 0.647
- phosphorylation enrichment (FGFR1): 0.611
- phosphorylation enrichment (FGFR3): 0.849
- phosphorylation enrichment (Fer (mouse)): 0.721
- phosphorylation enrichment (Fes): 1.28
- phosphorylation enrichment (Fyn): 0.535
- phosphorylation enrichment (Hck): 0.608
- phosphorylation enrichment (Jak2): 1.16
- phosphorylation enrichment (MERTK): 0.451
- phosphorylation enrichment (c-Abl (mouse)): 0.662
- phosphorylation enrichment (c-Src): 0.591
- SH2 binding enrichment (Grb2 SH2): 0.819
- SH2 binding enrichment (SHP2-C SH2): 0.77
- SH2 binding enrichment (c-Src SH2): 0.561

Sequence: IGSQRYKLGVR [RB1_Y446]
- phosphorylation enrichment (AncSZ): 0.447
- phosphorylation enrichment (EPHB1): 0.336
- phosphorylation enrichment (EPHB2): 0.332
- phosphorylation enrichment (FGFR1): 0.369
- phosphorylation enrichment (FGFR3): 0.364
- phosphorylation enrichment (Fer (mouse)): 0.322
- phosphorylation enrichment (Fes): 0.426
- phosphorylation enrichment (Fyn): 0.332
- phosphorylation enrichment (Hck): 0.31
- phosphorylation enrichment (Jak2): 0.436
- phosphorylation enrichment (MERTK): 0.306
- phosphorylation enrichment (c-Abl (mouse)): 0.41
- phosphorylation enrichment (c-Src): 0.356
- SH2 binding enrichment (Grb2 SH2): 1.16
- SH2 binding enrichment (SHP2-C SH2): 1.4
- SH2 binding enrichment (c-Src SH2): 0.798

Sequence: IIRYNYLLDVL [FGFR4_Y237_S232I]
- phosphorylation enrichment (AncSZ): 0.943
- phosphorylation enrichment (EPHB1): 0.522
- phosphorylation enrichment (EPHB2): 0.651
- phosphorylation enrichment (FGFR1): 0.599
- phosphorylation enrichment (FGFR3): 0.723
- phosphorylation enrichment (Fer (mouse)): 0.507
- phosphorylation enrichment (Fes): 2.41
- phosphorylation enrichment (Fyn): 0.476
- phosphorylation enrichment (Hck): 0.557
- phosphorylation enrichment (Jak2): 1.03
- phosphorylation enrichment (MERTK): 0.52
- phosphorylation enrichment (c-Abl (mouse)): 0.976
- phosphorylation enrichment (c-Src): 0.49
- SH2 binding enrichment (Grb2 SH2): 1.34
- SH2 binding enrichment (SHP2-C SH2): 1.66
- SH2 binding enrichment (c-Src SH2): 2.69

Sequence: ILGRTYYVNHE [NEDD4_Y627]
- phosphorylation enrichment (AncSZ): 0.928
- phosphorylation enrichment (EPHB1): 0.607
- phosphorylation enrichment (EPHB2): 0.539
- phosphorylation enrichment (FGFR1): 0.485
- phosphorylation enrichment (FGFR3): 0.682
- phosphorylation enrichment (Fer (mouse)): 0.507
- phosphorylation enrichment (Fes): 0.941
- phosphorylation enrichment (Fyn): 0.368
- phosphorylation enrichment (Hck): 0.632
- phosphorylation enrichment (Jak2): 0.705
- phosphorylation enrichment (MERTK): 0.368
- phosphorylation enrichment (c-Abl (mouse)): 0.725
- phosphorylation enrichment (c-Src): 0.68
- SH2 binding enrichment (Grb2 SH2): 6.67
- SH2 binding enrichment (SHP2-C SH2): 2.73
- SH2 binding enrichment (c-Src SH2): 1.41

Sequence: IMICAYLLHRG [PTEN_Y138_V133I]
- phosphorylation enrichment (AncSZ): 1.3
- phosphorylation enrichment (EPHB1): 0.617
- phosphorylation enrichment (EPHB2): 0.687
- phosphorylation enrichment (FGFR1): 0.534
- phosphorylation enrichment (FGFR3): 0.77
- phosphorylation enrichment (Fer (mouse)): 0.827
- phosphorylation enrichment (Fes): 1.35
- phosphorylation enrichment (Fyn): 0.709
- phosphorylation enrichment (Hck): 0.525
- phosphorylation enrichment (Jak2): 1.23
- phosphorylation enrichment (MERTK): 0.536
- phosphorylation enrichment (c-Abl (mouse)): 1.19
- phosphorylation enrichment (c-Src): 0.566
- SH2 binding enrichment (Grb2 SH2): 1.23
- SH2 binding enrichment (SHP2-C SH2): 1.16
- SH2 binding enrichment (c-Src SH2): 0.695

Sequence: IMVFVYCRVFQ [ADRB2_Y219_S220C]
- phosphorylation enrichment (AncSZ): 0.729
- phosphorylation enrichment (EPHB1): 0.424
- phosphorylation enrichment (EPHB2): 0.488
- phosphorylation enrichment (FGFR1): 0.841
- phosphorylation enrichment (FGFR3): 0.632
- phosphorylation enrichment (Fer (mouse)): 0.435
- phosphorylation enrichment (Fes): 0.836
- phosphorylation enrichment (Fyn): 0.51
- phosphorylation enrichment (Hck): 0.473
- phosphorylation enrichment (Jak2): 0.699
- phosphorylation enrichment (MERTK): 0.449
- phosphorylation enrichment (c-Abl (mouse)): 0.63
- phosphorylation enrichment (c-Src): 0.395
- SH2 binding enrichment (Grb2 SH2): 1.41
- SH2 binding enrichment (SHP2-C SH2): 1.1
- SH2 binding enrichment (c-Src SH2): 0.768

Further lines, with some results ahead:

- SH2 binding enrichment (Grb2 SH2): 0.635
- SH2 binding enrichment (SHP2-C SH2): 0.514
- SH2 binding enrichment (c-Src SH2): 0.381
Sequence: IGEGTYGVLYK [CDK2_Y15_V18L]
- phosphorylation enrichment (AncSZ): 0.817
- phosphorylation enrichment (EPHB1): 1.55
- phosphorylation enrichment (EPHB2): 2.75
- phosphorylation enrichment (FGFR1): 0.416
- phosphorylation enrichment (FGFR3): 0.632
- phosphorylation enrichment (Fer (mouse)): 0.808
- phosphorylation enrichment (Fes): 1.04
- phosphorylation enrichment (Fyn): 8.4
- phosphorylation enrichment (Hck): 7.04
- phosphorylation enrichment (Jak2): 0.635
- phosphorylation enrichment (MERTK): 2.63
- phosphorylation enrichment (c-Abl (mouse)): 0.587
- phosphorylation enrichment (c-Src): 5.6

- SH2 binding enrichment (Grb2 SH2): 0.799
- SH2 binding enrichment (SHP2-C SH2): 0.655
- SH2 binding enrichment (c-Src SH2): 0.457
Sequence: IGEGTYGVVFK [CDK2_Y15_YF]
- phosphorylation enrichment (AncSZ): 0.826
- phosphorylation enrichment (EPHB1): 1.14
- phosphorylation enrichment (EPHB2): 2.86
- phosphorylation enrichment (FGFR1): 0.431
- phosphorylation enrichment (FGFR3): 0.557
- phosphorylation enrichment (Fer (mouse)): 1.02
- phosphorylation enrichment (Fes): 1.05
- phosphorylation enrichment (Fyn): 7.22
- phosphorylation enrichment (Hck): 4.9
- phosphorylation enrichment (Jak2): 0.815
- phosphorylation enrichment (MERTK): 0.905
- phosphorylation enrichment (c-Abl (mouse)): 0.631
- phosphorylation enrichment (c-Src): 4.93

- SH2 binding enrichment (Grb2 SH2): 0.939
- SH2 binding enrichment (SHP2-C SH2): 0.969
- SH2 binding enrichment (c-Src SH2): 0.628
Sequence: IKNSGYISQYL [EIF2AK3_Y585_R588Q]
- phosphorylation enrichment (AncSZ): 0.593
- phosphorylation enrichment (EPHB1): 0.414
- phosphorylation enrichment (EPHB2): 0.375
- phosphorylation enrichment (FGFR1): 0.443
- phosphorylation enrichment (FGFR3): 0.458
- phosphorylation enrichment (Fer (mouse)): 0.323
- phosphorylation enrichment (Fes): 0.783
- phosphorylation enrichment (Fyn): 0.427
- phosphorylation enrichment (Hck): 0.39
- phosphorylation enrichment (Jak2): 0.617
- phosphorylation enrichment (MERTK): 0.374
- phosphorylation enrichment (c-Abl (mouse)): 0.435
- phosphorylation enrichment (c-Src): 0.406

- SH2 binding enrichment (Grb2 SH2): 0.877
- SH2 binding enrichment (SHP2-C SH2): 0.648
- SH2 binding enrichment (c-Src SH2): 0.401
Sequence: ILGLEYSLRLP [HELZ2_Y1304_V1308L]
- phosphorylation enrichment (AncSZ): 1.37
- phosphorylation enrichment (EPHB1): 0.814
- phosphorylation enrichment (EPHB2): 0.56
- phosphorylation enrichment (FGFR1): 0.542
- phosphorylation enrichment (FGFR3): 0.942
- phosphorylation enrichment (Fer (mouse)): 0.649
- phosphorylation enrichment (Fes): 1.44
- phosphorylation enrichment (Fyn): 0.628
- phosphorylation enrichment (Hck): 0.479
- phosphorylation enrichment (Jak2): 1.33
- phosphorylation enrichment (MERTK): 0.5
- phosphorylation enrichment (c-Abl (mouse)): 0.937
- phosphorylation enrichment (c-Src): 1.08

- SH2 binding enrichment (Grb2 SH2): 0.731
- SH2 binding enrichment (SHP2-C SH2): 0.8
- SH2 binding enrichment (c-Src SH2): 0.509
Sequence: ILKPDYQPLAV [HYDIN_Y1072_I1077V]
- phosphorylation enrichment (AncSZ): 0.817
- phosphorylation enrichment (EPHB1): 0.409
- phosphorylation enrichment (EPHB2): 0.42
- phosphorylation enrichment (FGFR1): 0.475
- phosphorylation enrichment (FGFR3): 0.667
- phosphorylation enrichment (Fer (mouse)): 0.387
- phosphorylation enrichment (Fes): 0.828
- phosphorylation enrichment (Fyn): 0.48
- phosphorylation enrichment (Hck): 0.456
- phosphorylation enrichment (Jak2): 0.617
- phosphorylation enrichment (MERTK): 0.448
- phosphorylation enrichment (c-Abl (mouse)): 0.73
- phosphorylation enrichment (c-Src): 0.418

- SH2 binding enrichment (Grb2 SH2): 0.799
- SH2 binding enrichment (SHP2-C SH2): 0.633
- SH2 binding enrichment (c-Src SH2): 0.453
Sequence: INASGYRIGPA [ACSM1_Y477]
- phosphorylation enrichment (AncSZ): 0.479
- phosphorylation enrichment (EPHB1): 0.371
- phosphorylation enrichment (EPHB2): 0.374
- phosphorylation enrichment (FGFR1): 0.349
- phosphorylation enrichment (FGFR3): 0.367
- phosphorylation enrichment (Fer (mouse)): 0.467
- phosphorylation enrichment (Fes): 0.502
- phosphorylation enrichment (Fyn): 0.328
- phosphorylation enrichment (Hck): 0.385
- phosphorylation enrichment (Jak2): 0.401
- phosphorylation enrichment (MERTK): 0.33
- phosphorylation enrichment (c-Abl (mouse)): 0.36
- phosphorylation enrichment (c-Src): 0.433

- SH2 binding enrichment (Grb2 SH2): 0.746
- SH2 binding enrichment (SHP2-C SH2): 0.57
- SH2 binding enrichment (c-Src SH2): 0.491
Sequence: INPIIYAFVGG [CCR5_Y297_E302G]
- phosphorylation enrichment (AncSZ): 1.14
- phosphorylation enrichment (EPHB1): 11.5
- phosphorylation enrichment (EPHB2): 9.68
- phosphorylation enrichment (FGFR1): 4.39
- phosphorylation enrichment (FGFR3): 3.51
- phosphorylation enrichment (Fer (mouse)): 6.66
- phosphorylation enrichment (Fes): 2.1
- phosphorylation enrichment (Fyn): 6.26
- phosphorylation enrichment (Hck): 6.35
- phosphorylation enrichment (Jak2): 1.55
- phosphorylation enrichment (MERTK): 8.42
- phosphorylation enrichment (c-Abl (mouse)): 14.4
- phosphorylation enrichment (c-Src): 5.05

- SH2 binding enrichment (Grb2 SH2): 0.944
- SH2 binding enrichment (SHP2-C SH2): 0.833
- SH2 binding enrichment (c-Src SH2): 0.44
Sequence: INSLKYAFNIS [EIF2B5_Y583_YF]
- phosphorylation enrichment (AncSZ): 0.722
- phosphorylation enrichment (EPHB1): 0.438
- phosphorylation enrichment (EPHB2): 0.475
- phosphorylation enrichment (FGFR1): 0.451
- phosphorylation enrichment (FGFR3): 0.567
- phosphorylation enrichment (Fer (mouse)): 0.385
- phosphorylation enrichment (Fes): 0.818
- phosphorylation enrichment (Fyn): 0.311
- phosphorylation enrichment (Hck): 0.424
- phosphorylation enrichment (Jak2): 0.809
- phosphorylation enrichment (MERTK): 0.349
- phosphorylation enrichment (c-Abl (mouse)): 0.632
- phosphorylation enrichment (c-Src): 0.379

- SH2 binding enrichment (Grb2 SH2): 0.876
- SH2 binding enrichment (SHP2-C SH2): 0.914
- SH2 binding enrichment (c-Src SH2): 0.574
Sequence: IPKTWYSAEQF [CD207_Y217]
- phosphorylation enrichment (AncSZ): 0.855
- phosphorylation enrichment (EPHB1): 3.19
- phosphorylation enrichment (EPHB2): 3.04
- phosphorylation enrichment (FGFR1): 0.494
- phosphorylation enrichment (FGFR3): 0.538
- phosphorylation enrichment (Fer (mouse)): 0.448
- phosphorylation enrichment (Fes): 0.939
- phosphorylation enrichment (Fyn): 0.522
- phosphorylation enrichment (Hck): 0.542
- phosphorylation enrichment (Jak2): 0.681
- phosphorylation enrichment (MERTK): 9.16
- phosphorylation enrichment (c-Abl (mouse)): 0.526
- phosphorylation enrichment (c-Src): 0.615
